Values joined by “and” are separate entries in the source; they are usually repeats but may differ in a detail not shown here. Equal values may be shown once. Each block holds one substance with its values, some of them ahead of it.
Legend:
[1] = molecular target: human CD40 ectodomain human Fc fusion protein (human) (UniProt P25942); experiment: competition flow cytometry: mouse mAb titrated into 2 ug/ml human CD40 ectodomain-human Fc, 1 h on ice, then added to human CD40L-transfected L cells; cell-bound CD40-Fc detected with anti-IgG-PE; blocked ligand: CD40L on L cells [left panel]
[2] = molecular target: human CD40 on cells (B cells, MDDCs, stably transfected CHO cells) (human) (UniProt P25942); experiment: cell-based or functional assay
Chain of human CD40 on cells (B cells, MDDCs, stably transfected CHO cells) (human) (P25942 21-277): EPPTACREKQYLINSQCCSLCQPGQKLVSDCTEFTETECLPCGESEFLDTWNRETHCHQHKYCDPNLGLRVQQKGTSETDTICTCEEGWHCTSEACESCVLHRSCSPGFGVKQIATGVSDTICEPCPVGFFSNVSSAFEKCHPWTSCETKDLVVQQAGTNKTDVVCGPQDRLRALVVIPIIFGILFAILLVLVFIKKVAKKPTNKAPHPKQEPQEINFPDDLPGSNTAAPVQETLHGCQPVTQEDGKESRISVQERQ

Chain of human CD40 ectodomain human Fc fusion protein (human) (P25942 21-193): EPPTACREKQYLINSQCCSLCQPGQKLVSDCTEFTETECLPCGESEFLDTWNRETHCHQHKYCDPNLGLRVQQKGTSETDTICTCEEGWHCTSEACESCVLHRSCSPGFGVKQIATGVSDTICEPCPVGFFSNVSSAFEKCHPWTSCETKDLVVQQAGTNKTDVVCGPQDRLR

IC50 (read off the curve) [1]: 0.1 µg/mL
Substance: 12E12 (antibody)

EC50 (nM) IL-12 p40, MDDC secretion [2]: > 1 nM and < 10 nM
EC50 (nM) IL-15, MDDC secretion [2]: > 1 nM and < 10 nM
EC50 (nM) TNFα, MDDC secretion [2]: > 1 nM and < 10 nM
EC50/11B6-CD40L, IL-12 p40 [2]: 100
EC50/11B6-CD40L, IL-15 [2]: 100
EC50/11B6-CD40L, TNFα [2]: 100
Substance: MEGACD40L (Mega sCD40L) (ligand)

EC50 (nM) B cell: 50% of maximum B cell proliferation (FIG. 10B) [2]: > 10 nM
fold less active in inducing B cell proliferation than the 11B6 and 12B4-CD40L fusion proteins [2]: 10 fold
Substance: human IgG4 control mAb with CD40L fused to the L chain
